Data from publication PMC4721541 (Bioscience Reports, 2015).
Positions count from the first letter of the chain named. Names may count otherwise.

B1: Erv1 (essential for respiration and viability 1), wild type (enzyme, S. cerevisiae, UniProt P27882 1-189, looked up)
chain: MKAIDKMTDNPPQEGLSGRKIIYDEDGKPCRSCNTLLDFQYVTGKISNGLKNLSSNGKLAGTGALTGEASELMPGSRTYRKVDPPDVEQLGRSSWTLLHSVAASYPAQPTDQQKGEMKQFLNIFSHIYPCNWCAKDFEKYIRENAPQVESREELGRWMCEAHNKVNKKLRKPKFDCNFWEKRWKDGWDE
notes: Erv1, Saccharomyces cerevisiae, FAD-dependent thiol oxidase, 189 amino acids, full length; Construct in pET24a(+) (NdeI/XhoI); also called WT Erv1; WT; source: E. coli Rosetta-gami 2, purified (Ni2+ resin, gel filtration)
B2: Erv1 W179F (enzyme, S. cerevisiae, UniProt P27882 1-189, looked up)
chain: B1 chain with W179F
notes: Erv1, Saccharomyces cerevisiae, 189 amino acids, full length, with W179F; Made by site-directed mutagenesis on the construct of m1; source: E. coli Rosetta-gami 2, purified (Ni2+ resin, gel filtration)
B3: Erv1 W187F (enzyme, S. cerevisiae, UniProt P27882 1-189, looked up)
chain: B1 chain with W187F
notes: Erv1, Saccharomyces cerevisiae, 189 amino acids, full length, with W187F; Made by site-directed mutagenesis on the construct of m1; source: E. coli Rosetta-gami 2, purified (Ni2+ resin, gel filtration)
B4: Erv1 W132F (enzyme, S. cerevisiae, UniProt P27882 1-189, looked up)
chain: B1 chain with W132F
notes: Erv1, Saccharomyces cerevisiae, 189 amino acids, full length, with W132F; Made by site-directed mutagenesis on the construct of m1; source: E. coli Rosetta-gami 2, purified (Ni2+ resin, gel filtration)
B5: Erv1 W157F (enzyme, S. cerevisiae, UniProt P27882 1-189, looked up)
chain: B1 chain with W157F
notes: Erv1, Saccharomyces cerevisiae, 189 amino acids, full length, with W157F; Made by site-directed mutagenesis on the construct of m1; source: E. coli Rosetta-gami 2, purified (Ni2+ resin, gel filtration)
B6: Erv1 W95F (enzyme, S. cerevisiae, UniProt P27882 1-189, looked up)
chain: B1 chain with W95F
notes: Erv1, Saccharomyces cerevisiae, 189 amino acids, full length, with W95F; Made by site-directed mutagenesis on the construct of m1; source: E. coli Rosetta-gami 2, purified (Ni2+ resin, gel filtration)
B7: Erv1 W183F (enzyme, S. cerevisiae, UniProt P27882 1-189, looked up)
chain: B1 chain with W183F
notes: Erv1, Saccharomyces cerevisiae, 189 amino acids, full length, with W183F; Made by site-directed mutagenesis on the construct of m1; FAD content 71% as purified; source: E. coli Rosetta-gami 2, purified (Ni2+ resin, gel filtration)

Target: the molecule itself
Experiment: SEC; gel filtration on Superdex 200 10/30, 4°C, BAE (150 mM NaCl, 50 mM Tris/HCl, 1 mM EDTA, pH 7.4); oligomer state by elution position against the WT
In the case of B1, the “stoichiometry N” value is reported as 4. B2 was tested, and the “stoichiometry N” value was 4. With B3 the “stoichiometry N” value was 4. With B4 the “stoichiometry N” value was 4. With B5 the “stoichiometry N” value was 4. In the case of B6, the “stoichiometry N” value is reported as 4.

Target: the molecule itself
Experiment: SEC-MALS; multi-angle laser light scattering after Superdex 200 10/30 in buffer A (150 mM NaCl, 50 mM Tris/HCl, pH 7.4); DAWN EOS photometer, Optilab rEX refractor
For B7, the “stoichiometry N” value was 2.
